Test results published in patent publication US20250011421A1 (GUANGDONG ANNPO BIOTECHNOLOGY, published 2025).
Blank lines part the entries; values can stand above or below the binder they belong to.

Legend:
hTIGIT-His protein [1] = target: T1, hTIGIT-His protein (human, UniProt Q495A1 22-141); assay: ELISA, hTIGIT-His coated at 0.5 µg/mL
T1 construct: Coated on the ELISA plate at 0.5 µg/mL; also called antigen hTIGIT-his protein; not shown: His tag
T1 sequence (looked up): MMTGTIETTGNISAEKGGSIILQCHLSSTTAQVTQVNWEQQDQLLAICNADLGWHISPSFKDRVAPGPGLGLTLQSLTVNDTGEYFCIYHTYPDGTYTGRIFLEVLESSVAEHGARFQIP
Protocol: (§1) The hTIGIT-his protein was diluted to 0.5 μg/mL with CBS buffer, coated in an ELISA plate in 50 μL/well, and left at 4° C. overnight. The plate was washed with PBST buffer for three times, 200 μL/well, and patted dry. 1% of BSA (dissolved in PBS) was then added, 200 μL/well, and the plate was incubated at 37° C. for 2 hours. After incubation, the plate was washed with PBST for three times, 200 μL/well, and patted dry. […] 100 μL was sucked with a multi-channel pipette, transferred into the ELISA plate, and incubated at 37° C. for 1 hour. After incubation, the plate was washed with PBST for three times, 200 μL/well, and patted dry. An anti-mouse IgG antibody labeled by HRP was diluted with 1% of BSA (dissolved in PBST) (diluted at 1:5000), 100 μL/well. Incubation was performed at 37° C. for 1 hour. After incubation, the plate was washed with PBST for three times, 200 μL/well, and patted dry. 50 μL of TMB chromogen solution was added into each well for chromogenic reaction, and the reaction time was 5 minutes in the dark. After 5 minutes of incubation, hydrochloric acid stop solution was directly added to stop the reaction in 50 μL/well. Absorbances at 450 nm (OD450) were detected by the light absorption mode of a microplate reader.

[2] = target: T2, hTIGIT on the surface of 293F-hTIGIT-short #1B1 cells (human, UniProt Q495A1 22-162, limits assumed); assay: flow cytometry competition on 293F-hTIGIT-short #1B1 cells; competitor PVR-hFc at 6 µg/mL
T2 construct: domain: extracellular domain and transmembrane domain; It is a truncated ('short') construct without the cytoplasmic part; also called 293F-hTIGIT-short cells; 293F-hTIGIT-short #1B1 cell line
T2 sequence (looked up): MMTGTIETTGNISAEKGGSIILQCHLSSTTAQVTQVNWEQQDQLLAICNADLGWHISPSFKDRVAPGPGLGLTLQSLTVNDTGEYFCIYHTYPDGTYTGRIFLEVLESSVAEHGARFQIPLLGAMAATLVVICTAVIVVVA
Protocol: The 293F-hTIGIT-short #1B1 cell line was digested, terminated, centrifuged, resuspended and counted, and the cell density was adjusted to 4×10⁶ cells/mL. According to 50 μL/tube, 20×10⁴ cells were added into 1.5 mL EP tubes. […] 100 μL of PBS was added into the blank group. Gentle blowing and mixing were performed, and incubation was then performed on ice for 1 hour. After incubation, 500 μL of PBS was added for centrifugal washing once, centrifugation was performed at 2000 rpm for 5 minutes, and the supernatants were discarded. Alexa® 488 fluorescently labeled anti-mouse or anti-human IgG antibody was diluted with PBS (diluted at 1:500) and added to the corresponding tubes in 200 μL/tube, gentle blowing and mixing were performed, and incubation was performed on ice in the dark for 30 minutes. After 30 minutes of incubation, signal detection was performed with a flow cytometer.

[3] = target: T3, mouse-derived TIGIT protein (accession number: NP_001139797.1) (mouse, UniProt P86176 29-148, limits assumed); assay: indirect ELISA, method as in Example 3
T3 construct: also called mouse TIGIT
T3 sequence (looked up): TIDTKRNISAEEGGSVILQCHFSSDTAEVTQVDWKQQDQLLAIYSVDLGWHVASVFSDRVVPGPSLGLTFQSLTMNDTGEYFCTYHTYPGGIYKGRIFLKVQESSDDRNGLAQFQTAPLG
Protocol: as §1, with “The” for “The hTIGIT-his protein was diluted to 0.5 μg/mL with CBS buffer, coated in an ELISA plate in 50 μL/well, and left at 4° C. overnight. The”

[4] = target: T2, hTIGIT on the surface of …; assay: flow cytometry on 293F-hTIGIT-short #1B1 cells
Protocol: (§2) The 293F-hTIGIT-short #1B1 cell line was digested, terminated, centrifuged, resuspended and counted, and the cell density was adjusted to 4×10⁶ cells/mL. According to 50 μL/tube, 20×10⁴ cells were added into 1.5 mL EP tubes. […] The blank group was added with 150 μL of PBS as a blank control. Gentle blowing and mixing were performed, and incubation was performed on ice for 1 hour. After incubation, 500 μL of PBS was added for centrifugal washing once, centrifugation was performed at 2000 rpm for 5 minutes, and the supernatants were discarded. A fluorescent secondary antibody was added (Alexa® 488 fluorescently labeled anti-mouse IgG antibody was diluted with PBS (diluted at 1:500) and added to the corresponding tubes in 200 μL/tube), gentle blowing and mixing were performed, and incubation was performed on ice in the dark for 30 minutes. After 30 minutes of incubation, signal detection was performed with a flow cytometer.

[5] = target: T2, hTIGIT on the surface of …; assay: flow cytometry competition on 293F-hTIGIT-short #1B1 cells; competitor 4.1D3 at 6 µg/mL, detected with anti-human IgG
[6] = target: T2, hTIGIT on the surface of …; assay: flow cytometry on cells expressing hTIGIT, method as in Example 3
Protocol: as §2
The method was the same as that in example 3.

[7] = target: T2, hTIGIT on the surface of …; assay: flow cytometry competition on 293F-hTIGIT-short cells; competitor PVR (method as in Example 4)
hTIGIT-His protein [8] = target: T1, hTIGIT-His protein; assay: ELISA on hTIGIT-His, method as in Example 3
Protocol: as §1

EC50 (hTIGIT-His protein [1]): 0.00396 µg/mL
IC50 [2]: 1.35 µg/mL
binding result [3]: no binding
EC50 [4]: 0.811 µg/mL
IC50 [5]: 4.08 µg/mL
B1: hTIGIT mouse-derived antibody m51C1 (antibody, V domains shown)
VH: QVQLQQSGAELVKPGASVKLSCKASGYTFTEYFIHWIKQKSGQGLEWIGWFYPGSGSIKYNERFKDKATLTADKSSSTVYMELSRLTSEDSAVYFCARHEMRYGNYVLDYWGQGTTLTVSS
VL: QAVVTQESALTTSPGETVTLTCRSSTGAVTTRNYANWVQEKPDHLFTGLIGGTNNRVPGVPARFSGSLIGDKAALTITGAQTEDEAIYFCGLWYSNHLVFGGGTKLTVLG
notes: Mouse monoclonal antibody from a hybridoma

EC50 [6]: 2.98 µg/mL
IC50 [7]: 5.21 µg/mL
EC50 (hTIGIT-His protein [8]): 0.007 µg/mL
B2: hTIGIT humanized antibody h51C1 (antibody, human IgG1, V domains shown)
VH: QVQLVQSGAEVKKPGASVKVSCKASGYTFTEYFIHWVRQAPGQGLEWIGWFYPGSGSIKYNERFKDRVTLTADTSISTAYMELSRLRSDDTAVYYCARHEMRYGNYVLDYWGQGTTVTVSS
VL: QAVVTQEPSLTVSPGGTVTLTCRSSTGAVTTRNYANWVQQKPGQAPRGLIGGTNNRVPGVPARFSGSLLGGKAALTLSGAQPEDEAEYYCGLWYSNHLVFGGGTKLTVLG
notes: also called 51C1-H2L2

EC50 [6]: 1.57 µg/mL
IC50 [7]: 2 µg/mL
EC50 (hTIGIT-His protein [8]): 0.006 µg/mL
B3: hTIGIT humanized antibody h60H5 (antibody, human IgG1, V domains shown)
VH: QVQLVQSGAEVKKPGASVKVSCKTSGYTFTEYTMHWVRQAPGQRLEWIGGINPNNGGTSYNQKFQGRVTITVDTSASTAYMELSSLRSEDTAVYYCARSGNWDYAMDYWGQGTTVTVSS
VL: DIQMTQSPSSMSASVGDRVTITCKASQHVSTAVVWYQQKPGKAPKLLIYSASYRYTGVPDRFSGSGSGTDFTFTISSLQPEDIATYYCQQHYITPWTFGGGTKLEIKR
notes: also called 60H5-H2L1
